The values that follow are results of earlier work, collected in publication PMC5242463.

For this data set, the target named is Trigger Factor (Escherichia coli) (UniProt P0A850).
Sequence of Trigger Factor (Escherichia coli) (P0A850 whole entry): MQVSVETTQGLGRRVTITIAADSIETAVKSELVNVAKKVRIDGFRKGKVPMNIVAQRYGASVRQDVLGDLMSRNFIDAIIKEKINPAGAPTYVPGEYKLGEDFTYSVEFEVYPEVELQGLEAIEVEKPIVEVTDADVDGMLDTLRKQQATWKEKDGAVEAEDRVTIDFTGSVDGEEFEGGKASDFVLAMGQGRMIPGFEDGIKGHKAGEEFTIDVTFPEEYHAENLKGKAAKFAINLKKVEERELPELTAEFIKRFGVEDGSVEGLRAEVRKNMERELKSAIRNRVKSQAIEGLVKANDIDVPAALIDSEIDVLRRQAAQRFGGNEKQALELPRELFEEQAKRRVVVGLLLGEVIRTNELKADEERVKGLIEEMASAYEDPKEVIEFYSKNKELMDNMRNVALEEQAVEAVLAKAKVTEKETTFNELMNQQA

Sequence of Nascent Lep (P00803 whole entry): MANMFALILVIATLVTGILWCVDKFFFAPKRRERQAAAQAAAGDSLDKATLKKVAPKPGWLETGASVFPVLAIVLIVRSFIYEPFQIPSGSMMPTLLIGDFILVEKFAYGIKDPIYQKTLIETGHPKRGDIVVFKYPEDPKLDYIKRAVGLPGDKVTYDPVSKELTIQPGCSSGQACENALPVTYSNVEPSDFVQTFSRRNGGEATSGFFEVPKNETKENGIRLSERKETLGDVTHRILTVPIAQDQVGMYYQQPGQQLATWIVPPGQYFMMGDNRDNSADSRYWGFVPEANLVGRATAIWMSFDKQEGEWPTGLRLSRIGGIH

Regarding Nascent Lep (from UniProt P00803), the Kd is 0.311 µM.

What is called Kd is the constant that tells how readily two partners part at equilibrium.
